The source of these data is PMC6104945 (2018).

To fix the notation:
B1: NHBA_(312-427) (Neisserial heparin binding antigen, peptide 20, residues M312-D427) [Neisseria meningitidis (strain 2996)] / Fab 5H2 (Fab derived from the vaccine-elicited human monoclonal antibody 5H2) [human] (parent complex)
chain 1: MLAGTAVYNGEVLHFHTENGRPYPTRGRFAAKVDFGSKSVDGIIDSGDDLHMGTQKFKAAIDGNGFKGTWTENGGGDVSGRFYGPAGEEVAGKYSYRPTDAEKGGFGVFAGKKEQD
chain 2: not shown
chain 3: EIVMTQTPSSLSASVGDRVTITCRASQSISNYLNWYQQKPGTAPKLLTYAASSLGSGVPSRFSGSGSGTDLTLTISSLRPEDFATYYCQQSYGSPTFGQGTKLEIRRTVAAPSVFIFPPSDEQLKSGTASVVCLLNNFYPREAKVQWKVDNALQSGNSQESVTEQDSKDSTYSLSSTLTLSKADYEKHKVYACEVTHQGLSSPVTKSFNRGEC

Variants of B1 are the subject of this experiment. In words: SPR; Fab 5H2 captured on sensor chip, NHBA312-427 mutant injected; response read at end of injection (~48 s); read off a plot. In general terms: In SPR one partner is held on a chip, and binding of the other changes the refractive index at the surface.
Regarding chain 1 E11A, chain 1 E114A, the response was around 51 RU.

chain 1 R28G, chain 1 K56A: the response was around 5 RU.

For chain 1 K56A, the response is around 58 RU.

For the variant chain 1 D49A, chain 1 T54A, the response was around 42 RU.

For chain 1 R28A, chain 1 K56A, the response was around 3 RU.

For the variant chain 1 R28G, the response is around 30 RU.

As to chain 1 R28A, the response was around 2 RU.
